In general, EC50 refers to the concentration that produces a half-maximal response. Low values mean an effect from little substance, high ones a need for much substance.

The test system of data set [1] is A549 cells. The data set is described as follows: Flow screen (in vitro) surface binding. Further details: species or system human. The note with it: flow cytometry; comparisons are to AB-008873. The procedure: Surface binding of the antibodies to in vitro grown cell lines was assessed by flow cytometry. Tumor cells were detached from their culture plate using Versene and counted. Cells were staining in BSA-containing buffer with primary antibody for 30 minutes at 4° C. with shaking. Following, cells were washed and stained with secondary PE-labeled antibody for 30 minutes at 4° C. with shaking. Before analysis on an Intellicyt iQue3 scanner, cells were counterstained with DAPI. MedFI values from live, single cells was expressed as fold over isotype control.
(A flow cytometer gives signals particle by particle.)

Data set [2] relates to A549 cells. Put plainly: ADCC (KILR target cells, NK92 CD16 chimera effector cells). The note with it: for ADCC activity on A549 cells (in words): comparisons are to AB-008873 or parent; for EC50 / ADCC - dAct rel. parent, Trial 1 / ADCC - dAct rel. parent, Trial 2: A549 tumor cells; for ADCC - dAct rel. parent, Trial 1: Trial 1, relative to parent antibody; for ADCC - dAct rel. parent, Trial 2: Trial 2, relative to parent antibody. The format is cell-based, human. The procedure: (§1) To detect Antibody-dependent cellular cytotoxicity (ADCC), KILR™-transfected target cells were opsonized with different concentrations of the antibody at room temperature for 20 minutes. Following, NK92 cells carrying a mouse extracellular-human intracellular CD16 chimera were added at a 5:1 ratio of effector to target cells. After a 4 h co-culture at 37° C. and 5% CO2, pre-mixed KILR™ detection reagent was added to each well at equal volume and allowed to incubate for 30 min at room temperature in the dark before reading luminescence on a pate reader. Cytotoxicity was calculated after background (spontaneous release) subtraction and expressed as percent of a maximum lysis control.

In data set [3] the test system is A549 cells. The data set is described as follows: ADCP with RAW264.7 mouse macrophage effector cells. The format is cell-based, human. How it is done: For antibody-dependent cellular phagocytosis (ADCP), the cell membranes of target cells were labeled with green fluorescent membrane dye preceding opsonization with different concentrations of antibody at room temperature for 30 minutes. RAW264.7 mouse macrophage (effector) cells were then added at a 1:1 ratio with the target cells and co-cultured at 37° C. and 5% CO2 for 2 hours. After incubation, the cell mixture was dissociated with 2 mM ethylenediaminetetraacetic acid (EDTA, pH 7.4). The cell suspension was then washed several times in an isotonic salt solution and probed with a commercially available anti-CD11b antibody, conjugated with Allophycocyanin (APC). After a 30-minute incubation at 4° C. with this antibody, the cell suspension was washed again before being analyzed by flow cytometry.

A further data set has as its system PC3-KILR cells. The data set is described as follows: ADCC (KILR target cells, NK92 CD16 chimera effector cells). The format is cell-based, human. The procedure: as §1
The subject of the next data set is PC3 tumors. The data set is described as follows: In vivo PC3 model in NPG mice, ZLA-conjugated EphA2 antibodies. Further details: species or system mouse. The note with it: ZLA conjugates in both IgG1 and IgG4 formats; 3 and 6 mg/kg; ~150 mm^3 and ~400 mm^3 PC3 tumors. How it is done: This experiment assessed the activity of ZLA-Conjugated EphA2 antibodies AB-010671-ZLA and AB-010699-ZLA in vivo. 2×10^6 PC3 cells were inoculated in 0.2 mL of 1:1 DPBS with Matrigel subcutaneously into each of the male NPG mice. Tumors were allowed to establish and then randomized at an average size of 150 mm^3 with 10 mice per treatment cohort. Treatment started at the day of randomization (Day 0) with weekly intravenous injections of the conjugates at the indicated doses. Body weight as well as tumor sizes were monitored twice weekly. Study was ended at day 35 after 5 doses. At endpoint, mice were euthanized, and tumors excised and weighted.
The assay was repeated with AB-010699 and AB-010671 in both IgG1 and IgG4 formats at 1, 3, and 6 mg/kg, AB-010016, and vehicle and isotype controls in mice carrying PC3 tumor cells measuring ˜150 mm^3 or ˜400 mm^3. […] FIG. 60B and FIG. 61B show the body weight of the mice over the course of the studies.

The test system of data set [4] is SKOV3, MDAMB231, and PC3 tumor cells.
Description: This experiment tested the cytotoxicity of antibody-drug conjugates (“conjugates”) each comprising an EphA2 antibody directly conjugated via a lysine to a ZymeLink™ Auristatin (ZLA) payload having structure (1) as disclosed above on SKOV3, MDAMB231, and PC3 tumor cells. […] The average drug to antibody ratio (DAR) for each molecule ranges from 2.9 and 3.6 as determined by Mass Spectrometry. […] 2,500 cells were added to each well of a 96 well plate and incubated with different concentrations of directly conjugated primary antibody for 15 min at room temperature. Cells were then incubated for 72 h at 37° C. and 5% CO2. At the end of the incubation period, 100 μl CellTiter-Glo® was added to each well and allowed to incubate for 5-10 min at room temperature before reading luminescence in a BMG ClarioSTAR plate reader. Data were then normalized to a maximum lysis control and plotted using graph pad prism software.

“Also recorded” adds a separate entry of the source.

B1: AB-009807: sibling of AB-008873; VH SEQ ID NO: 70, VL SEQ ID NO: 81 (antibody, V domains shown)
VH: QVQLQQWGAGLLKPSETLSLTCAVYGGSFNDYYWSWIRQPPGKGLEWIGEVNHSGSTSYNPSLKSRVTISVDTSKNQFSLKLSSVTAADTAVYYCAKPFRPHCTNGVCYSGDAFDIWGQGTMVTVSS
VL: SYVLTQPPSVSVAPGQTARITCGGNNIGSKNVHWYQQKPGQAPALVVYDDSDRPSGIPEQFSGSNSGNTATLTISRVEAGDEADYYCQVWDSSSDHLVFGGGTKLTVL
As for B1, the “binding to A549 cells (in words)” value with A549 cells [1] is “less than that of AB-008873; also recorded: little binding and ADCC activity”. Further, the “ADCC activity on A549 cells (in words)” value with A549 cells [2] was “less than that of AB-008873; also recorded: little binding and ADCC activity”. Further, the “ADCP activity on A549 cells (in words)” value with A549 cells [3] is listed as “less than that of AB-008873; also recorded: some ADCP activity”.

B2: AB-010685: VH SEQ ID NO: 638, VL SEQ ID NO: 703; H107TI; L29SY; L92SH relative to AB-010361 (antibody, V domains shown)
VH: QVQLQQWGAGLLKPSETLSLTCAVYGGSFSGYYWSWIRQPPGKGLEWIGEINHRGSINYNNYNPSLKSRVTISVDTSKNQFSLKLSSVTAADTAVYYCAKPLRPHCINGVCYSGDAFDIWGQGTMVTVAS
VL: SYVLTQPPSVSVAPGQTARITCGGNNIGYKNVHWYQQKPGQAPVLVVYDDSDRPSGIPEQFSGSNSGNTATLTISRVEAGDEADYYCQVWDHSSDHVVFGGGTKLTVL
Consider B2, for which, in the data set on A549 cells [2], the EC50 was ~6 pM; the “ADCC - dAct rel. parent, Trial 1” value is on record as 161.1%; the “ADCC - dAct rel. parent, Trial 2” value was found to be 106.4%; the “ADCC activity on A549 cells (in words)” value is reported as “improved ADCC activity”. Further, the “ADCC potency on PC3-KILR cells (in words)” value in the data set with PC3-KILR cells is recorded as “highly potent”. Also, the “fold improvement in ADCC as compared to AB-010018” value with PC3-KILR cells (PC3-KILR cells) is recorded as 10 fold.

B3: AB-010671: VH SEQ ID NO: 624, VL SEQ ID NO: 689; H107TI; L29SY; L92SH relative to AB-010357 (antibody, V domains shown)
VH: QVQLQQWGAGLLKPSETLSLTCAVYGGSFSDYYWSWIRQPPGKGLEWIGEINHRGSINYNNYNPSLKSRVTISVDTSKNQFSLKLSSVTAADTAVYYCAKPLRPHCINGVCYSGDAFDIWGQGTMVTVAS
VL: SYVLTQPPSVSVAPGQTARITCGGNNIGYKNVHWYQQKPGQAPVLVVYDDSDRPSGIPEQFSGSNSGNTATLTISRVEAGDEADYYCQVWDHSSDHVVFGGGTKLTVL
For the molecule B3, in the data set on A549 cells [2], the EC50 is ~6 pM; the “ADCC - dAct rel. parent, Trial 1” value was determined as 157.1%; the “ADCC - dAct rel. parent, Trial 2” value came out at 106.7%. Besides, the “anti-tumor activity, repeat study” value in the data set with PC3 tumors was “anti-tumor activity”. Also, the “cytotoxic activity of ZLA conjugates (in words)” value in data set [4] is “higher potency but similar maximum cytotoxicity compared to AB-010361-ZLA and AB-010361-IgG4-ZLA”.

The record behind these values is US20250276077A1, “EPHA2 ANTIBODIES” (Immunome, Inc., priority 2022, published 2025).
